Measurements as given in patent US20240018188A1.
[ ]: non-standard residue; d: D form. 2Nal = N[C@@H](Cc1ccc2ccccc2c1)C(=O)O; dNle = CCCC[C@@H](N)C(=O)O; βAla = NCCC(=O)O

Target: human RAD51 (human) (UniProt Q06609)
Experiment: cell-based or functional assay

human RAD51 (human), sequence (Q06609 2-339 limits assumed): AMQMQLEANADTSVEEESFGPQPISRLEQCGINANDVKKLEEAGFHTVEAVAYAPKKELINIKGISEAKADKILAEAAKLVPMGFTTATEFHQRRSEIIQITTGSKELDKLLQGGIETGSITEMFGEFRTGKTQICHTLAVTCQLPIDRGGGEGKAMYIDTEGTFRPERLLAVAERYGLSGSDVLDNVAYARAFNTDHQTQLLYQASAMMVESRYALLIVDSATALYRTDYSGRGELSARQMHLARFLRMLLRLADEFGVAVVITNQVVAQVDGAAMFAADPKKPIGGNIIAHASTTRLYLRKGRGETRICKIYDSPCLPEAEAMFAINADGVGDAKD

B1: Compound 12 (peptide)
peptide: Ac-[dL][dNle][dR]G[dV][dR][dL][dR][dV]G[dL][dR][dK][dR][dR][dR][dR][dR]G[2Nal]-NH2
SMILES: CCCC[C@@H](NC(=O)[C@@H](CC(C)C)NC(C)=O)C(=O)N[C@H](CCCNC(=N)N)C(=O)NCC(=O)N[C@@H](C(=O)N[C@H](CCCNC(=N)N)C(=O)N[C@H](CC(C)C)C(=O)N[C@H](CCCNC(=N)N)C(=O)N[C@@H](C(=O)NCC(=O)N[C@H](CC(C)C)C(=O)N[C@H](CCCNC(=N)N)C(=O)N[C@H](CCCCN)C(=O)N[C@H](CCCNC(=N)N)C(=O)N[C@H](CCCNC(=N)N)C(=O)N[C@H](CCCNC(=N)N)C(=O)N[C@H](CCCNC(=N)N)C(=O)N[C@H](CCCNC(=N)N)C(=O)NCC(=O)N[C@@H](Cc1ccc2ccccc2c1)C(N)=O)C(C)C)C(C)C
IC50: 17 µM

B2: Compound 14 (peptide)
peptide: Ac-[dL][dNle][dR][dS][dR][dR][dL][dR][dV]G[dL][dR][dK][dR][dR][dR][dR][dR]G[2Nal]-NH2
SMILES: CCCC[C@@H](NC(=O)[C@@H](CC(C)C)NC(C)=O)C(=O)N[C@H](CCCNC(=N)N)C(=O)N[C@H](CO)C(=O)N[C@H](CCCNC(=N)N)C(=O)N[C@H](CCCNC(=N)N)C(=O)N[C@H](CC(C)C)C(=O)N[C@H](CCCNC(=N)N)C(=O)N[C@@H](C(=O)NCC(=O)N[C@H](CC(C)C)C(=O)N[C@H](CCCNC(=N)N)C(=O)N[C@H](CCCCN)C(=O)N[C@H](CCCNC(=N)N)C(=O)N[C@H](CCCNC(=N)N)C(=O)N[C@H](CCCNC(=N)N)C(=O)N[C@H](CCCNC(=N)N)C(=O)N[C@H](CCCNC(=N)N)C(=O)NCC(=O)N[C@@H](Cc1ccc2ccccc2c1)C(N)=O)C(C)C
IC50: 3500 µM

B3: Compound 16 (peptide)
peptide: Ac-[dL][dNle][dR][dS][dV][dR][dL][dR][dNle]G[dL][dR][dK][dR][dR][dR][dR][dR]G[2Nal]-NH2
SMILES: CCCC[C@@H](NC(=O)[C@@H](CCCNC(=N)N)NC(=O)[C@@H](CC(C)C)NC(=O)[C@@H](CCCNC(=N)N)NC(=O)[C@H](NC(=O)[C@@H](CO)NC(=O)[C@@H](CCCNC(=N)N)NC(=O)[C@@H](CCCC)NC(=O)[C@@H](CC(C)C)NC(C)=O)C(C)C)C(=O)NCC(=O)N[C@H](CC(C)C)C(=O)N[C@H](CCCNC(=N)N)C(=O)N[C@H](CCCCN)C(=O)N[C@H](CCCNC(=N)N)C(=O)N[C@H](CCCNC(=N)N)C(=O)N[C@H](CCCNC(=N)N)C(=O)N[C@H](CCCNC(=N)N)C(=O)N[C@H](CCCNC(=N)N)C(=O)NCC(=O)N[C@@H](Cc1ccc2ccccc2c1)C(N)=O
IC50: 43 µM

B4: Compound 17 (peptide)
peptide: Ac-[dL][dNle][dR][dS][dV][dR][dL][dR][dV][βAla][dL][dR][dK][dR][dR][dR][dR][dR]G[2Nal]-NH2
SMILES: CCCC[C@@H](NC(=O)[C@@H](CC(C)C)NC(C)=O)C(=O)N[C@H](CCCNC(=N)N)C(=O)N[C@H](CO)C(=O)N[C@@H](C(=O)N[C@H](CCCNC(=N)N)C(=O)N[C@H](CC(C)C)C(=O)N[C@H](CCCNC(=N)N)C(=O)N[C@@H](C(=O)NCCC(=O)N[C@H](CC(C)C)C(=O)N[C@H](CCCNC(=N)N)C(=O)N[C@H](CCCCN)C(=O)N[C@H](CCCNC(=N)N)C(=O)N[C@H](CCCNC(=N)N)C(=O)N[C@H](CCCNC(=N)N)C(=O)N[C@H](CCCNC(=N)N)C(=O)N[C@H](CCCNC(=N)N)C(=O)NCC(=O)N[C@@H](Cc1ccc2ccccc2c1)C(N)=O)C(C)C)C(C)C
IC50: 20 µM
